Data: article PMC5113989
Where two headings read alike, the source gives them in different places.

Legend:
Assay in all cases: KinExA flow fluorimetry (depletion of 5-Helix by cells)
[1] = target: C34-conjugated CCR5 (gp41 HR2 peptide C34 fused to the amino terminus of CCR5) (HIV-1 (HxB2 numbering) | human (genomic DNA of the Jurkat T cell line)) (UniProt P04578)
[2] = target: C34-conjugated CXCR4 (gp41 HR2 peptide C34 fused to the amino terminus of CXCR4) (HIV-1 (HxB2 numbering) | not stated) (UniProt P04578)
[3] = target: C34-conjugated CCR5 (gp41 HR2 peptide C34 fused to the amino terminus of CCR5) (HIV-1 (HxB2 numbering) | human (genomic DNA of the Jurkat T cell line)) (UniProt P04578); remark: listed apart in the source
[4] = target: C34-conjugated CXCR4 (gp41 HR2 peptide C34 fused to the amino terminus of CXCR4) (HIV-1 (HxB2 numbering) | not stated) (UniProt P04578); remark: listed apart in the source

Substance: rhodamine-conjugated 5-Helix (5-Helix variant containing a C-terminal Cys residue)
- Kd [1]: < 0.015 nM
- Kd [2]: < 0.015 nM
- Kd [3]: 0.013 nM
- Kd [4]: 0.004 nM
